How the values were obtained:
[1] = target: T1, mouse membrane-presented CD47 on Tg32 mouse erythrocytes (mouse, UniProt Q61735 19-303); test: flow cytometry on Tg32 mouse erythrocytes (FIG. 21)
T1 construct: whole, on cells
T1 sequence (looked up): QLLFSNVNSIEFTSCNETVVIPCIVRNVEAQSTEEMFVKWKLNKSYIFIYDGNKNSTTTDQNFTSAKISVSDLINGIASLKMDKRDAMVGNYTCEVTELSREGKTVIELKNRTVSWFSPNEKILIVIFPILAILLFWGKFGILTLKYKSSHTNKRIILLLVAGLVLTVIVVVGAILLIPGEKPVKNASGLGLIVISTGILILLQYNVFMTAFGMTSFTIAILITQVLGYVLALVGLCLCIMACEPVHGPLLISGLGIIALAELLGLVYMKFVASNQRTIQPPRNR

[2] = target: human CD47 on cells (human erythrocytes, MCF-7, BT-474) (human, UniProt Q08722 19-323); test: cell-based or functional assay
[3] = target: human C-MET protein (ELISA coat) (human, UniProt P08581 25-932); test: direct binding ELISA (FIG. 7C)
Sequence of human C-MET protein (ELISA coat) (P08581 25-932 limits assumed): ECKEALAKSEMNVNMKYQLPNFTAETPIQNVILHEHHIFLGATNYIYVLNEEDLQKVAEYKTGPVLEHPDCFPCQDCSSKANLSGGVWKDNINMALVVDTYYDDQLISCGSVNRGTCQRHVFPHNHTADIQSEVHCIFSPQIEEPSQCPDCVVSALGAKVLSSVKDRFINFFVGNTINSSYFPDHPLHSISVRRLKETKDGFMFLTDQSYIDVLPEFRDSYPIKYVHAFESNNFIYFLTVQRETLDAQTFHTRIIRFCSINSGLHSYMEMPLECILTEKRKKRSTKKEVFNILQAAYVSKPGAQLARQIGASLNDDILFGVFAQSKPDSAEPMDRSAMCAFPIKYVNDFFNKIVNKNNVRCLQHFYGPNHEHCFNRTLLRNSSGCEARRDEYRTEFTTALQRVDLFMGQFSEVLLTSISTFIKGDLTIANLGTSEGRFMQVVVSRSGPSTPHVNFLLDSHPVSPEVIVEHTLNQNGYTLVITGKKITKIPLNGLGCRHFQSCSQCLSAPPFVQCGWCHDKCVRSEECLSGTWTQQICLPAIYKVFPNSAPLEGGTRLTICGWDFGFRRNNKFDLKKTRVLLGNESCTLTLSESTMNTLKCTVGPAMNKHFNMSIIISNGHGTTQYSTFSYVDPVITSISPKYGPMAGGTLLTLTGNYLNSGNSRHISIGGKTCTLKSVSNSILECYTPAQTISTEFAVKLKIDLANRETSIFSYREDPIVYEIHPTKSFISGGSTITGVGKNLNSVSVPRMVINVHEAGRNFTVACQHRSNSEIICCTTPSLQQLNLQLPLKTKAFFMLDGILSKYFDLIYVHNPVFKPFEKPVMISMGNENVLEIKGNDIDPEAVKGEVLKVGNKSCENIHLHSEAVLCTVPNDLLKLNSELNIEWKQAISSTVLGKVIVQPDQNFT

[4] = target: T2, human CD47 protein (ELISA coat) (human, UniProt Q08722 19-139); test: direct binding ELISA (FIG. 7C)
T2 construct: also called hCD47

[5] = target: T3, soluble human CD47 ectodomain protein (human, UniProt Q08722 19-139); test: SPR (Biacore), IgG captured via anti-Fc; run at beginning
T3 construct: also called hCD47; huCD47

[6] = target: T3, soluble human CD47 ectodomain protein; test: SPR (Biacore), IgG captured via anti-Fc; run at end

B1: Fab^2 Met47 LHL-LHL (as used in the Tg32 mouse studies) (bispecific antibody, not shown: a dimerising Fc or GST)
heavy: QVQLVQSGAEVKKPGASVKVSCKASGYTFTSYTMHWVRQAPGQGLEWMGIINPSGGSTSYAQKFQGRVTMTRDTSTSTVYMELSSLRSEDTAVYYCARQEITTEFDYWGQGTLVTVSSASTKGPSVFPLAPSSKSTSGGTAALGCLVKDYFPEPVTVSWNSGALTSGVHTFPAVLQSSGLYSLSSVVTVPSSSLGTQTYICNVNHKPSNTKVDKKVEPKSCGPAPELLGGGSQVQLVQSGAEVKKPGESLKISCKGSGYTFTNYYIFWVRQMPGKGLEWMGIINPVDGDTNYNPSFQGQVTISADKSISTAYLQWSSLKASDTAMYYCARGGYTMDRWGQGTLVTVSS
light: EIVLTQSPGTLSLSPGERATLSCRASQSVSSYANSYLHWYQQKPGQAPRLLIYRGSTRESGIPDRFSGSGSGTDFTLTISRLEPEDFAVYYCQQSKSEPLTFGGGTKVEIKRTVAAPSVFIFPPSDEQLKSGTASVVCLLNNFYPREAKVQWKVDNALQSGNSQESVTEQDSKDSTYSLSSTLTLSKADYEKHKVYACEVTHQGLSSPVTKSFNRGECGPAPELLGGGSDIVMTQSPLSLPVTPGEPASISCRSSQSLLHSNGYNYLHWYLQKPGQSPQLLIYKVSNRLSGVPDRFSGSGSGTDFTLKISRVEAEDVGVYYCFQNTHTPRTFGGGTKVEIK
Q: Does B1 bind [1]?
A: no binding (tested: 10 µg/ml)

B2: Fab^2 cMETCD47-LHL-LHL (bispecific antibody)
heavy: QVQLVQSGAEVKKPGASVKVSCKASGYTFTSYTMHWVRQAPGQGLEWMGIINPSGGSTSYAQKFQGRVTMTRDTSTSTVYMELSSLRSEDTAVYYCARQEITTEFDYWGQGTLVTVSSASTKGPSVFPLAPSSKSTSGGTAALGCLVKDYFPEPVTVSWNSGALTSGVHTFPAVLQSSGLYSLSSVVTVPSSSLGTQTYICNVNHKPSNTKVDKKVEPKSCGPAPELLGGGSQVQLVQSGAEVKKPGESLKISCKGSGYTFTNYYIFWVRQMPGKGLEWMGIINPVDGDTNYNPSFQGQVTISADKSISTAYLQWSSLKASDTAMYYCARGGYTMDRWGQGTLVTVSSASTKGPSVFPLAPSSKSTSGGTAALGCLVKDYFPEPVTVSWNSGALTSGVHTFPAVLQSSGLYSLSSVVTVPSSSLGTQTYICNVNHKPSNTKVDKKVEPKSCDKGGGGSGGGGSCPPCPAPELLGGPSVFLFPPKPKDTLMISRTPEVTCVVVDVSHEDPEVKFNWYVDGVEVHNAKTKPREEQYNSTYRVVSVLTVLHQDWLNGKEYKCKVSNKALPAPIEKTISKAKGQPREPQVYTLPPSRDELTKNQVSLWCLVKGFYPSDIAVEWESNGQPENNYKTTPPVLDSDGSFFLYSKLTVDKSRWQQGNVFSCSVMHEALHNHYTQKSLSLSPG
light: EIVLTQSPGTLSLSPGERATLSCRASQSVSSYANSYLHWYQQKPGQAPRLLIYRGSTRESGIPDRFSGSGSGTDFTLTISRLEPEDFAVYYCQQSKSEPLTFGGGTKVEIKRTVAAPSVFIFPPSDEQLKSGTASVVCLLNNFYPREAKVQWKVDNALQSGNSQESVTEQDSKDSTYSLSSTLTLSKADYEKHKVYACEVTHQGLSSPVTKSFNRGECGPAPELLGGGSDIVMTQSPLSLPVTPGEPASISCRSSQSLLHSNGYNYLHWYLQKPGQSPQLLIYKVSNRLSGVPDRFSGSGSGTDFTLKISRVEAEDVGVYYCFQNTHTPRTFGGGTKVEIKRTVAAPSVFIFPPSDEQLKSGTASVVCLLNNFYPREAKVQWKVDNALQSGNSQESVTEQDSKDSTYSLSSTLTLSKADYEKHKVYACEVTHQGLSSPVTKSFNRGECGGGGSGGGGSCPPCPAPELLGGPSVFLFPPKPKDTLMISRTPEVTCVVVDVSHEDPEVKFNWYVDGVEVHNAKTKPREEQYNSTYRVVSVLTVLHQDWLNGKEYKCKVSNKALPAPIEKTISKAKGQPREPQVYTLPPSRDELTKNQVSLSCAVKGFYPSDIAVEWESNGQPENNYKTTPPVLDSDGSFFLVSKLTVDKSRWQQGNVFSCSVMHEALHNHYTQKSLSLSPG
notes: also called Met47-LHL-LHL; clone 6
Q: Which “fold reduction of ability to induce agglutination in comparison to A-D5 IgG1” value [2] does the source give for B2 here?
A: > 241 fold

Q: Does B2 bind [3]?
A: binds

Q: And the “fold reduction of ability to bind CD47 in comparison to A-D5 IgG1” value [4]?
A: > 1000 fold

B3: A-D5 anti-CD47 IgG1 (antibody, V domains shown)
VH: QVQLVQSGAEVKKPGESLKISCKGSGYTFTNYYIFWVRQMPGKGLEWMGIINPVDGDTNYNPSFQGQVTISADKSISTAYLQWSSLKASDTAMYYCARGGYTMDRWGQGTLVTVSS
VL: DIVMTQSPLSLPVTPGEPASISCRSSQSLLHSNGYNYLHWYLQKPGQSPQLLIYKVSNRLSGVPDRFSGSGSGTDFTLKISRVEAEDVGVYYCFQNTHTPRTFGGGTKVEIK
notes: also called A-D5 IgG1; A-D5 CD47 IgG
Q: For B3, which Kd [5] is on record?
A: 1.29 nM

Q: What about the koff [5] of the same binder?
A: 0.00107 s⁻¹

Q: What about the kon [5] of the same binder?
A: 833000 M⁻¹ s⁻¹

Q: And the Kd [6]?
A: 1.32 nM

Q: What about the koff [6] of the same binder?
A: 0.00103 s⁻¹

Q: What about the kon [6] of the same binder?
A: 775000 M⁻¹ s⁻¹

B4: Fab^2 cMETCD47-L2-L2 (bispecific antibody)
heavy: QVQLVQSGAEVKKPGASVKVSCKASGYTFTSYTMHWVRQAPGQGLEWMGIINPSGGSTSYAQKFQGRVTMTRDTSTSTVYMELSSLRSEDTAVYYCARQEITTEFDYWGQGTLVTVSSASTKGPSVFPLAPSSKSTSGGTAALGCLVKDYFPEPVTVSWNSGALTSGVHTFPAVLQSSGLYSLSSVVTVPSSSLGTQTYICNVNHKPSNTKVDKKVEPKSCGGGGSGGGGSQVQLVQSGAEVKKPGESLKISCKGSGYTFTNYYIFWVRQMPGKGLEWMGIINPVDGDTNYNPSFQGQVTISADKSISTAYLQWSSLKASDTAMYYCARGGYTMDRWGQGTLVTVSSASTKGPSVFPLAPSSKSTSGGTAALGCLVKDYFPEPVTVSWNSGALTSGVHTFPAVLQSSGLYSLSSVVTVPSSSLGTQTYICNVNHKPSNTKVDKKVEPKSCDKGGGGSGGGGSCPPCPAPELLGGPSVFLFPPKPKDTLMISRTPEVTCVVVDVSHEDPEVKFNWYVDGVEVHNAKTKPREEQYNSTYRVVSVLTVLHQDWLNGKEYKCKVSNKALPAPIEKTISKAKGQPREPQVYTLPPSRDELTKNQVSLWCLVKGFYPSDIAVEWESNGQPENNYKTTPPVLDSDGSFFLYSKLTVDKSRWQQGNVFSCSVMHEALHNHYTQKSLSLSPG
light: EIVLTQSPGTLSLSPGERATLSCRASQSVSSYANSYLHWYQQKPGQAPRLLIYRGSTRESGIPDRFSGSGSGTDFTLTISRLEPEDFAVYYCQQSKSEPLTFGGGTKVEIKRTVAAPSVFIFPPSDEQLKSGTASVVCLLNNFYPREAKVQWKVDNALQSGNSQESVTEQDSKDSTYSLSSTLTLSKADYEKHKVYACEVTHQGLSSPVTKSFNRGECGGGGSGGGGSDIVMTQSPLSLPVTPGEPASISCRSSQSLLHSNGYNYLHWYLQKPGQSPQLLIYKVSNRLSGVPDRFSGSGSGTDFTLKISRVEAEDVGVYYCFQNTHTPRTFGGGTKVEIKRTVAAPSVFIFPPSDEQLKSGTASVVCLLNNFYPREAKVQWKVDNALQSGNSQESVTEQDSKDSTYSLSSTLTLSKADYEKHKVYACEVTHQGLSSPVTKSFNRGECGGGGSGGGGSCPPCPAPELLGGPSVFLFPPKPKDTLMISRTPEVTCVVVDVSHEDPEVKFNWYVDGVEVHNAKTKPREEQYNSTYRVVSVLTVLHQDWLNGKEYKCKVSNKALPAPIEKTISKAKGQPREPQVYTLPPSRDELTKNQVSLSCAVKGFYPSDIAVEWESNGQPENNYKTTPPVLDSDGSFFLVSKLTVDKSRWQQGNVFSCSVMHEALHNHYTQKSLSLSPG
Q: How did the “fold reduction of ability to induce agglutination in comparison to A-D5 IgG1” value [2] turn out when B4 was run?
A: > 241 fold

Reference: patent US20230192899A1 (published 2023)
